Patent publication US12269859B2, “Synthetic immune receptors and methods of use thereof” (Angeles Therapeutics, Inc., priority 2016, dated 2025)

Test system: target antigen-expressing cell line
Assay: Jurkat NFAT-GFP assay, coculture with target cell lines expressing the respective target antigen (summary Table 10A)
Format: cell-based, human
Design: key: The signs +/−, +, 2+ etc. after the name of the cell lines indicate the relative degree of positivity on the Jurkat-NFAT-GFP assay as measured by the % GFP positive cells; +: relative degree of positivity on the Jurkat-NFAT-GFP assay as measured by the % GFP positive cells; 2+: relative degree of positivity on the Jurkat-NFAT-GFP assay as measured by the % GFP positive cells
Conditions: relative % GFP positive cells; for NFAT-GFP ASSAY Positive Cell lines: HepG2: SIR-expressing Jurkat-NFAT-GFP cells cocultured with HepG2
Experimental: (B) Induction of NFAT promoter driven GFP expression. The control vector- and SIR-expressing Jurkat-NFAT-GFP cocultured for 4-24 hours with the target antigen-expressing cell line (described above) and their ability to bind to the target antigen is assayed by measuring induction of GFP expression using Flow Cytometry. Cellular supernatant is collected and assayed for the induction of cytokines (e.g., IL2).
Jurkat NFAT-GFP Assay For Synthetic Immune Receptors. The Jurkat-NFAT-GFP cells are engineered in such a way that the IL-2 promoter, which carries NFAT binding sites, is cloned upstream of the GFP gene. These cells have been used to study signaling via TCR and CAR. The different SIRs were stably expressed in Jurkat NFAT-GFP cells by lentiviral mediated gene transfer, followed by selection with puromycin. The SIR-expressing Jurkat-NFAT-GFP cells were cocultured with the target cells at E:T ratio of approximately 1:2 for approximately 4 hours to 18 hours. When the interaction between SIRs and their target antigen results in activation of the NFAT pathway, GFP expression is induced.
Induction of GFP expression by coculturing of Jurkat-NFAT-GFP cells expressing different SIR constructs and the different target cells was studied essentially as described previously (Wu, Roybal, Puchner, Onuffer, & Lim, 2015). GFP expression was monitored by FACS analysis. A few representative examples of this assay are shown in the FIG. 13A-B. In panel A, control Jurkat-NFAT-GFP cells or those expressing SIRs targeting CD19 (clone ID 051716-I08), MPL (Clone ID: 040716-A07) and BCMA (Clone ID: 011116-A07) were incubated with RAJI (top), HEL (middle) or U266 (bottom) cells, respectively. […] In panel B, Jurkat cells expressing SIR targeting CDH6 (Clone ID: 051716-J05), CD276 (Clone ID: 050516-Q06) and Her2/neu (Clone ID: 050516-I03) were incubated with SKOV3 (top) and […] (middle and bottom) cells, respectively. […] The Jurkat-NFAT-GFP cells were engineered to express different SIRs targeting other antigens and the experiment repeated upon coculture with the target cells expressing their respective target antigen. The Jurkat-NFAT-GFP (parental) cells were used as control. The names of different SIRs, their SEQ ID NOs, component antigen binding domains and TCR chains can be determined by reference to Tables 7A-7H. A SIR is considered positive in the assay in case the SIR expressing Jurkat-NFAT-GFP cells show greater % GFP positive cells when cultured with the target cell line as compared to parental Jurkat-NFAT-GFP cells. […] The signs +/−, +, 2+ etc. after the name of the cell lines indicate the relative degree of positivity on the Jurkat-NFAT-GFP assay as measured by the % GFP positive cells after culture of the SIR expressing Jurkat-NFAT-GFP cells with that cell line. […] In addition, great diversity of response against the same target cell line is observed with Jurkat cells expressing SIRs containing different antigen binding domains targeting the same antigen (e.g., SIRs having antigen binding domains derived form different CD19 antibodies) even when the SIRs share the same TCR chains and linkers. Finally, Jurkat cells expressing SIRs targeting different antigens (e.g. CD19 vs CD20) show a diversitiy of response when exposed to the same target cell line. Thus, a diverse immune response can be generated against a single target cell by combining SIRs with different TCR chains, linkers, antigen binding domains and target specificity. Table 10A also summarizes the results of GLuc based T cell cytotoxicity assay observed with different SIRs when exposed to their target cell lines. […]

B1: 012617-M05 (protein)
chain: MALPVTALLLPLALLLHAARPLEGKPIPNPLLGLDSTGSGEDLKNVFPPEVAVFEPSKAEIAHTQKATLVCLATGFYPDHVELSWWVNGKEVHSGVCTDPQPLKEQPALNDSRYCLSSRLRVSATFWQNPRNHFRCQVQFYGLSENDEWTQDRAKPVTQIVSAEAWGRADCGITSASYHQGVLSATILYEILLGKATLYAVLVSALVLMAMVKRKDSRGRAKRSGSGATNFSLLKQAGDVEENPGPTSMALPVTALLLPLALLLHAARPQSVLTQPASVSGSPGQSITISCTGTSSDVGGYNYVSWYQQHPGKAPKLMIYDVNNRPSEVSNRFSGSKSGNTASLTISGLQAEDEADYYCSSYTTGSRAVFGGGTKLTVLGGGGGSGGGGSGGGGSEVQLVQSGAEVKKPGESLTISCKASGYSFPNYWITWVRQMSGGGLEWMGRIDPGDSYTTYNPSFQGHVTISIDKSTNTAYLHWNSLKASDTAMYYCARYYVSLVDIWGQGTLVTVSSTREQKLISEEDGSGIQNPDPAVYQLRDSKSSDKSVCLFTDFDSQTNVSQSKDSDVYITDKCVLDMRSMDFKSNSAVAWSNKSDFACANAFNNSIIPEDTFFPSSDVPCDVKLVEKSFETDTNLNFQNLSVIGFRILLLKVAGFNLLMTLRLWSSRAKRSGSGVKQTLNFDLLKLAGDVESNPGPSRGHMTEYKPTVRLATRDDVPRAVRTLAAAFADYPATRHTVDPDRHIERVTELQELFLTRVGLDIGKVWVADDGAAVAVWTTPESVEAGAVFAEIGPRMAELSGSRLAAQQQMEGLLAPHRPKEPAWFLATVGVSPDHQGKGLGSAVVLPGVEAAERAGVPAFLETSAPRNLPFYERLGFTVTADVEVPEGPRTWCMTRKPGA
NFAT-GFP ASSAY Positive Cell lines: HepG2: HepG2 (2+)

B2: 051816-Z01 (protein)
chain: MALPVTALLLPLALLLHAARPDVQMIQTPSSLSASLGDRVTISCRASQDIGNYLNWYQQKPDGTVKLLIYYTSRLHSGVPSRFSGSGSGTEYSLTISNLEQEDIATYFCQQGSALPPTFGGGTKLEINLEGKPIPNPLLGLDSTGSGEDLKNVFPPEVAVFEPSKAEIAHTQKATLVCLATGFYPDHVELSWWVNGKEVHSGVCTDPQPLKEQPALNDSRYCLSSRLRVSATFWQNPRNHFRCQVQFYGLSENDEWTQDRAKPVTQIVSAEAWGRADCGITSASYHQGVLSATILYEILLGKATLYAVLVSALVLMAMVKRKDSRGRAKRSGSGATNFSLLKQAGDVEENPGPTSMDWIWRILFLVGAATGAHSFEALQLQQSGAELVRPGASVTLSCKASGYTFTDYEMHWVKQTPVHGLEWIGAIDPETGGTAYNQKFEGKAILTADKSSSTAYMELRSLTSEDSPVYYCARRRYYGSSSFDYWGQGTTLTVSSTREQKLISEEDGSGIQNPDPAVYQLRDSKSSDKSVCLFTDFDSQTNVSQSKDSDVYITDKCVLDMRSMDFKSNSAVAWSNKSDFACANAFNNSIIPEDTFFPSSDVPCDVKLVEKSFETDTNLNFQNLSVIGFRILLLKVAGFNLLMTLRLWSSRAKRSGSGVKQTLNFDLLKLAGDVESNPGPSRGHMTEYKPTVRLATRDDVPRAVRTLAAAFADYPATRHTVDPDRHIERVTELQELFLTRVGLDIGKVWVADDGAAVAVWTTPESVEAGAVFAEIGPRMAELSGSRLAAQQQMEGLLAPHRPKEPAWFLATVGVSPDHQGKGLGSAVVLPGVEAAERAGVPAFLETSAPRNLPFYERLGFTVTADVEVPEGPRTWCMTRKPGA
modifications: Synthetic Immune Receptor (SIR)
NFAT-GFP ASSAY Positive Cell lines: LAN5 (SIR-expressing Jurkat-NFAT-GFP cells cocultured with LAN5): LAN5 (2+)

B3: 021317-E02 (protein)
chain: MALPVTALLLPLALLLHAARPLEGKPIPNPLLGLDSTGSGEDLKNVFPPEVAVFEPSKAEIAHTQKATLVCLATGFYPDHVELSWWVNGKEVHSGVCTDPQPLKEQPALNDSRYCLSSRLRVSATFWQNPRNHFRCQVQFYGLSENDEWTQDRAKPVTQIVSAEAWGRADCGITSASYHQGVLSATILYEILLGKATLYAVLVSALVLMAMVKRKDSRGRAKRSGSGATNFSLLKQAGDVEENPGPTSMALPVTALLLPLALLLHAARPQSVLTQPPSVSGAPGQRVTISCTGSSSNIGAGYDVHWYQQLPGTAPKLLIFGNSNRPSGVPDRFSGFKSGTSASLAITGLQAEDEADYFCQSYDSSLSGSGVFGTGTKVTVLGGGGGSGGGGSGGGGSQMQLVQSGGGLVQPGRSLRLSCAASGFTFDDYAMHWVRQAPGKGLEWVSGISWNSGSIGYADSVKGRFTISRDNAKNSLYLQMNSLRAEDTALYYCAKDIHSGSYYGLLYYAMDVWGQGTTVTVSSTREQKLISEEDGSGIQNPDPAVYQLRDSKSSDKSVCLFTDFDSQTNVSQSKDSDVYITDKCVLDMRSMDFKSNSAVAWSNKSDFACANAFNNSIIPEDTFFPSSDVPCDVKLVEKSFETDTNLNFQNLSVIGFRILLLKVAGFNLLMTLRLWSSRAKRSGSGVKQTLNFDLLKLAGDVESNPGPSRGHMTEYKPTVRLATRDDVPRAVRTLAAAFADYPATRHTVDPDRHIERVTELQELFLTRVGLDIGKVWVADDGAAVAVWTTPESVEAGAVFAEIGPRMAELSGSRLAAQQQMEGLLAPHRPKEPAWFLATVGVSPDHQGKGLGSAVVLPGVEAAERAGVPAFLETSAPRNLPFYERLGFTVTADVEVPEGPRTWCMTRKPGA
NFAT-GFP ASSAY Positive Cell lines: HepG2: HepG2 (+)

B4: 012417-H04 (protein)
chain: MALPVTALLLPLALLLHAARPLEGKPIPNPLLGLDSTGSGEDLKNVFPPEVAVFEPSKAEIAHTQKATLVCLATGFYPDHVELSWWVNGKEVHSGVCTDPQPLKEQPALNDSRYCLSSRLRVSATFWQNPRNHFRCQVQFYGLSENDEWTQDRAKPVTQIVSAEAWGRADCGITSASYHQGVLSATILYEILLGKATLYAVLVSALVLMAMVKRKDSRGRAKRSGSGATNFSLLKQAGDVEENPGPTSMALPVTALLLPLALLLHAARPDIVMTQSPATLSLSPGERATLSCRSSKSLQNVNGNTYLYWFQQKPGQSPQLLIYRMSNLNSGVPDRFSGSGSGTEFTLTISSLEPEDFAVYYCMQHLEYPITFGAGTKLEIKGGGGSGGGGSGGGGSEVQLVESGGGLVKPGGSLKLSCAASGYTFTSYVMHWVRQAPGKGLEWIGYINPYNDGTKYNEKFQGRVTISSDKSISTAYMELSSLRSEDTAMYYCARGTYYYGTRVFDYWGQGTLVTVSSTREQKLISEEDGSGIQNPDPAVYQLRDSKSSDKSVCLFTDFDSQTNVSQSKDSDVYITDKCVLDMRSMDFKSNSAVAWSNKSDFACANAFNNSIIPEDTFFPSSDVPCDVKLVEKSFETDTNLNFQNLSVIGFRILLLKVAGFNLLMTLRLWSSRAKRSGSGVKQTLNFDLLKLAGDVESNPGPSRGHMTEYKPTVRLATRDDVPRAVRTLAAAFADYPATRHTVDPDRHIERVTELQELFLTRVGLDIGKVWVADDGAAVAVWTTPESVEAGAVFAEIGPRMAELSGSRLAAQQQMEGLLAPHRPKEPAWFLATVGVSPDHQGKGLGSAVVLPGVEAAERAGVPAFLETSAPRNLPFYERLGFTVTADVEVPEGPRTWCMTRKPGA
NFAT-GFP ASSAY Positive Cell lines: NALM6 (SIR-expressing Jurkat-NFAT-GFP cells cocultured with NALM6): (+) | NFAT-GFP ASSAY Positive Cell lines: RAJI (SIR-expressing Jurkat-NFAT-GFP cells cocultured with RAJI): RAJI (2+), NALM6
